Measurements: the supplement of paper PMC5998384

Legend:
HeLa Kyoto [1] = experiment: solubility in G1/S (NP-40 vs SDS abundance) (log2 ratio); higher = more soluble; settings: cell cycle stage: G1/S
HeLa Kyoto [2] = experiment: solubility change mitosis vs G1/S (difference of NP-40 vs SDS log2 ratios) (log2 ratio difference); higher = more soluble in mitosis
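Wherever solubility change mitosis vs G1/S (difference of NP-40 vs SDS log2 ratios) is given: synchronized HeLa Kyoto cells (double thymidine block for G1/S, nocodazole release for mitosis), protein amounts in NP-40 versus SDS lysates quantified by mass spectrometry, three biological replicates.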
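Wherever solubility in G1/S (NP-40 vs SDS abundance) is given: HeLa Kyoto cells arrested at G1/S by double thymidine block, proteins quantified by TMT10plex mass spectrometry in mild NP-40 versus SDS extracts, three biological replicates.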

Sequence	solubility in G1/S (log2) (HeLa Kyoto [1])	solubility change mitosis (log2) (HeLa Kyoto [2])
MEPPMEPSGGEQEPGAVRFLDLPWEDVLLPHVLNRVPLRQLLRLQRVSRAFRSLVQLHLAGLRRFDAAQVGPQIPRAALARLLRDAEGLQELALAPCHEWLSDEDLVPVLARNPQLRSVALGGCGQLSRRALGALAEGCPRLQRLSLAHCDWVDGLALRGLADRCPALEELDLTACRQLKDEAIVYLAQRRGAGLRSLSLAVNANVGDAAVQELARNCPELHHLDLTGCLRVGSDGVRTLAEYCPVLRSLRVRHCHHVAESSLSRLRKRGVDIDVEPPLHQALVLLQDMAGFAPFVNLQV [FBXL15]	0.189	-0.195
MERKRWECPALPQGWEREEVPRRSGLSAGHRDVFYYSPSGKKFRSKPQLARYLGGSMDLSTFDFRTGKMLMSKMNKSRQRVRYDSSNQVKGKPDLNTALPVRQTASIFKQPVTKITNHPSNKVKSDPQKAVDQPRQLFWEKKLSGLNAFDIAEELVKTMDLPKGLQGVGPGCTDETLLSAIASALHTSTMPITGQLSAAVEKNPGVWLNTTQPLCKAFMVTDEDIRKQEELVQQVRKRLEEALMADMLAHVEELARDGEAPLDKACAEDDDEEDEEEEEEEPDPDPEMEHV [MBD3]	0.334	0.629
MERMNWLSRLASRGPGHRIPQGANLQTPVMADPETCLMVFKNHWSQVVRILERQGPRAAPGGADDLSAVRNHTYQMLTLLAEDRAVPSAPTGPGPLLEFALHEDLLTRVLTWQLQWDELGDGVEERRAEQLKLFEMLVSEARQPLLRHGPVREALLTLLDACGRPVPSSPALDEGLVLLLSQLCVCVAQEPSLLEFFLQPPPEPGAAPRLLLFSRLVPFVHREGTLGQQARDALLLLMALSAGSPTVGRYIADHSYFCPVLATGLSALYSSLPRKIEVPGDDWHCLRREDWLGVPALALFMSSLEFCNAVIQVAHPLVQKQLVDYIHNGFLVPVMGPALHKTSVEEMIASTAYLELFLRSISEPALLRTFLRFLLLHRHDTHTILDTLVARIGSNSRLCMVSLSLFRTLLNLSCEDVLLQLVLRYLVPCNHVMLSQKPAVRDVDLYGRAADKFLSLIPRCCRHHAPSPPRPEHASWARGPGSPSVDSSSVTTVPRPSTPSRLALFLRQQSLGGSESPGPAPCSPGLSASPASSPGRRPTPAEEPGELEDNYLEYLREARRGVDRCVRACRTWSAPYDGERPSPEPSPFGSRTKKRSLLPEEDRNNVGEGEEEELGRRGRAGGAGEGPGHLPPPQLNGVPGSWPEGAKKVRLVPKEGAGELLEGISEGMAGLEGFGQELRELEVALSNGGTGSESPLEPPLPLEEEEAYESFTCPPEPPGPFLSSPLRTLNQLPSQPFTGPFMAVLFAKLENMLQNSVYVNFLLTGLVAQLACHPQPLLRSFLLNTNMVFQPSVKSLLQVLGSVKNKIENFAASQEDFPALLSKAKKYLIARGKLDWAEGPAAGPAPRRSDPLVKSRRPSLGELLLRHAHSPTRARQAAQLVLQPGRDGAGLGLSGGSPGASTPVLLTRGGAPERQGEALRVKNAVYCAVIFPEFLKELAAISQAHAVTSPFLLETSEEGSGPLISGCGPLNP [FAM160A2]	0.177	0.0167
METPPVNTIGEKDTSQPQQEWEKNLRENLDSVIQIRQQPRDPPTETLELEVSPDPASQILEHTQGAEKLVAELEGDSHKSHGSTSQMPEALQASDLWYCPDGSFVKKIVIRGHGLDKPKLGSCCRVLALGFPFGSGPPEGWTELTMGVGPWREETWGELIEKCLESMCQGEEAELQLPGHSGPPVRLTLASFTQGRDSWELETSEKEALAREERARGTELFRAGNPEGAARCYGRALRLLLTLPPPGPPERTVLHANLAACQLLLGQPQLAAQSCDRVLEREPGHLKALYRRGVAQAALGNLEKATADLKKVLAIDPKNRAAQEELGKVVIQGKNQDAGLAQGLRKMFG [FKBPL]	0.618	0.144
METSSMLSSLNDECKSDNYIEPHYKEWYRVAIDILIEHGLEAYQEFLVQERVSDFLAEEEINYILKNVQKVAQSTAHGTDDSCDDTLSSGTYWPVESDVEAPNLDLGWPYVMPGLLGGTHIDLLFHPPRAHLLTIKETIRKMIKEARKVIALVMDIFTDVDIFKEIVEASTRGVSVYILLDESNFNHFLNMTEKQGCSVQRLRNIRVRTVKGQDYLSKTGAKFHGKMEQKFLLVDCQKVMYGSYSYMWSFEKAHLSMVQIITGQLVESFDEEFRTLYARSCVPSSFAQEESARVKHGKALWENGTYQHSVSSLASVSSQRNLFGRQDKIHKLDSSYFKNRGIYTLNEHDKYNIRSHGYKPHFVPNFNGPNAIRQFQPNQINENWKRHSYAGEQPETVPYLLLNRALNRTNNPPGNWKKPSDSLSVASSSREGYVSHHNTPAQSFANRLAQRKTTNLADRNSNVRRSFNGTDNHIRFLQQRMPTLEHTTKSFLRNWRIESYLNDHSEATPDSNGSALGDRFEGYDNPENLKANALYTHSRLRSSLVFKPTLPEQKEVNSCTTGSSNSTIIGSQGSETPKEVPDTPTNVQHLTDKPLPESIPKLPLQSEAPKMHTLQVPENHSVALNQTTNGHTESNNYIYKTLGVNKQTENLKNQQTENLLKRRSFPLFDNSKANLDPGNSKHYVYSTLTRNRVRQPEKPKEDLLKSSKSMHNVTHNLEEDEEEVTKRNSPSGTTTKSVSIAALLDVNKEESNKELASKKEVKGSPSFLKKGSQKLRSLLSLTPDKKENLSKNKAPAFYRLCSSSDTLVSEGEENQKPKKSDTKVDSSPRRKHSSSSNSQGSIHKSKEDVTVSPSQEINAPPDENKRTPSPGPVESKFLERAGDASAPRFNTEQIQYRDSREINAVVTPERRPTSSPRPTSSELLRSHSTDRRVYSRFEPFCKIESSIQPTSNMPNTSINRPEIKSATMGNSYGRSSPLLNYNTGVYRSYQPNENKFRGFMQKFGNFIHKNK [FAM83B]	-1.47	0.383
MEVEAAEARSPAPGYKRSGRRYKCLSCTKTFPNAPRAARHAATHGPADCSEEVAEVKPKPETEAKAEEASGEKVSGSAAKPRPYACPLCPKAYKTAPELRSHGRSHTGEKPFPCPECGRRFMQPVCLRVHLASHAGELPFRCAHCPKAYGALSKLKIHQRGHTGERPYACADCGKSFADPSVFRKHRRTHAGLRPYSCERCGKAYAELKDLRNHERSHTGERPFLCSECGKSFSRSSSLTCHQRIHAAQKPYRCPACGKGFTQLSSYQSHERTHSGEKPFLCPRCGRMFSDPSSFRRHQRAHEGVKPYHCEKCGKDFRQPADLAMHRRVHTGDRPFKCLQCDKTFVASWDLKRHALVHSGQRPFRCEECGRAFAERASLTKHSRVHSGERPFHCNACGKSFVVSSSLRKHERTHRSSEAAGVPPAQELVVGLALPVGVAGESSAAPAAGAGLGDPPAGLLGLPPESGGVMATQWQVVGMTVEHVECQDAGVREAPGPLEGAGEAGGEEADEKPPQFVCRECKETFSTMTLLRRHERSHPELRPFPCTQCGKSFSDRAGLRKHSRTHSSVRPYTCPHCPKAFLSASDLRKHERTHPVPMGTPTPLEPLVALLGMPEEGPA [ZNF668]	-0.985	0.453
MEVEDSGGVVLTAYHSYARAQPPNAESRCAPRAAASHPLSRKSIPRCRRINRMLSNESLHPPAFSRSNSEASVDSASMEDFWREIESIKDSSMGGQEEPPPAEVTPVDEGELEAEWLQDVGLSTLISGDEEEDGKALLSTLTRTQAAAVQKRYHTYTQTMRKKDKQSIRDVRDIFGVSESPPRDTCGNHTNQLDGTKEERELPRVIKTSGSMPDDASLNSTTLSDASQDKEGSFAVPRSDSVAILETIPVLPVHSNGSPEPGQPVQNAISDDDFLEKNIPPEAEELSFEVSYSEMVTEALKRNKLKKSEIKKEDYVLTKFNVQKTRFGLTEAGDLSAEDMKKIRHLSLIELTAFFDAFGIQLKRNKTEKVKGRDNGIFGVPLTVLLDGDRKKDPGVKVPLVLQKFFEKVEESGLESEGIFRLSGCTAKVKQYREELDAKFNADKFKWDKMCHREAAVMLKAFFRELPTSLFPVEYIPAFISLMERGPHVKVQFQALHLMVMALPDANRDAAQALMTFFNKVIANESKNRMSLWNISTVMAPNLFFSRSKHSDYEELLLANTAAHIIRLMLKYQKILWKVPSFLITQVRRMNEATMLLKKQLPSVRKLLRRKTLERETASPKTSKVLQKSPSARRMSDVPEGVIRVHAPLLSKVSMAIQLNNQTKAKDILAKFQYENSHGSSECIKIQNQRLYEIGGNIGEHCLDPDAYILDVYRINPQAEWVIKPQQSS [ARHGAP28]	0.167	0.00445
MFFYLSKKISIPNNVKLQCVSWNKEQGFIACGGEDGLLKVLKLETQTDDAKLRGLAAPSNLSMNQTLEGHSGSVQVVTWNEQYQKLTTSDENGLIIVWMLYKGSWIEEMINNRNKSVVRSMSWNADGQKICIVYEDGAVIVGSVDGNRIWGKDLKGIQLSHVTWSADSKVLLFGMANGEIHIYDNQGNFMIKMKLSCLVNVTGAISIAGIHWYHGTEGYVEPDCPCLAVCFDNGRCQIMRHENDQNPVLIDTGMYVVGIQWNHMGSVLAVAGFQKAAMQDKDVNIVQFYTPFGEHLGTLKVPGKEISALSWEGGGLKIALAVDSFIYFANIRPNYKWGYCSNTVVYAYTRPDRPEYCVVFWDTKNNEKYVKYVKGLISITTCGDFCILATKADENHPQEENEMETFGATFVLVLCNSIGTPLDPKYIDIVPLFVAMTKTHVIAASKEAFYTWQYRVAKKLTALEINQITRSRKEGRERIYHVDDTPSGSMDGVLDYSKTIQGTRDPICAITASDKILIVGRESGTIQRYSLPNVGLIQKYSLNCRAYQLSLNCNSSRLAIIDISGVLTFFDLDARVTDSTGQQVVGELLKLERRDVWDMKWAKDNPDLFAMMEKTRMYVFRNLDPEEPIQTSGYICNFEDLEIKSVLLDEILKDPEHPNKDYLINFEIRSLRDSRALIEKVGIKDASQFIEDNPHPRLWRLLAEAALQKLDLYTAEQAFVRCKDYQGIKFVKRLGKLLSESMKQAEVVGYFGRFEEAERTYLEMDRRDLAIGLRLKLGDWFRVLQLLKTGSGDADDSLLEQANNAIGDYFADRQKWLNAVQYYVQGRNQERLAECYYMLEDYEGLENLAISLPENHKLLPEIAQMFVRVGMCEQAVTAFLKCSQPKAAVDTCVHLNQWNKAVELAKNHSMKEIGSLLARYASHLLEKNKTLDAIELYRKANYFFDAAKLMFKIADEEAKKGSKPLRVKKLYVLSALLIEQYHEQMKNAQRGKVKGKSSEATSALAGLLEEEVLSTTDRFTDNAWRGAEAYHFFILAQRQLYEGCVDTALKTALHLKDYEDIIPPVEIYSLLALCACASRAFGTCSKAFIKLKSLETLSSEQKQQYEDLALEIFTKHTSKDNRKPELDSLMEGGEGKLPTCVATGSPITEYQFWMCSVCKHGVLAQEISHYSFCPLCHSPVG [WDR35]	-0.261	-0.105
